In publication PMC3239189 (Nucleic Acids Research, 2011):

T1: LHK-Exo (Laribacter hongkongensis HLHK9, UniProt C1D7P6 1-203)
T1 sequence: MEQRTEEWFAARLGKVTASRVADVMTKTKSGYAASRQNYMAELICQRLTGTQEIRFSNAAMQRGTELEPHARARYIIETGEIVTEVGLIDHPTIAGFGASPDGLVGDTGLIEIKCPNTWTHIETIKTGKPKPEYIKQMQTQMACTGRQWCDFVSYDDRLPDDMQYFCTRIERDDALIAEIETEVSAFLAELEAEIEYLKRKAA

B1: LHK-Exo (alkaline exonuclease from Laribacter hongkongensis HLHK9, LHK_01497) (enzyme, UniProt C1D7P6 1-203, looked up)
chain: T1 sequence
B2: 5'-PO4-(dT)5 (ssDNA)
DNA: TTTTT
modifications: 5'-phosphate

Columns and labels:
AUC = target: the molecule itself; assay: AUC
LHK-Exo = target: T1, LHK-Exo; assay: X-ray crystallography

Binder	stoichiometry N (AUC)	binding result (LHK-Exo)
B1	3	
B2		binds
